# Test results published in the nanobody polyreactivity screen of Harvey et al. (2022).
# Test: yeast display, Sf9 membrane polyspecificity reagent, FACS + sequencing; frameworks hold sequencing errors
# Outline: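 Galactose-induced (36–48 hours) yeast carrying a synthetic nanobody display library were exposed to 10% biotinylated, detergent-solubilized Sf9 membrane reagent at 4 °C for 1 hour. FACS followed streptavidin microbead enrichment, using low and high (top ~1%) gates for expression (anti-HA) and reagent binding (streptavidin). Colony PCR, MiSeq 2 × 250 sequencing and CDR-length filtering followed. Labels for polyreactivity reflect the gate of origin.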
row,Sequence,polyreactivity (PSR sort gate)
1,QVQLVESGGGLVQAGGSLRLSCAASGLTFPYYAMGWYRQAPGKERELVAAISSSGGSTYYADSVKGRFTISRDNAKNTVYLQMNSLKPEDTAVYYCAAQRYINYDYWGQGTQVTVSS,high polyreactivity
2,RVQLQESGGGLVQAGGSLRLSCAPSSTISRYFYMGWYRQAPGKEREFVASITYGASTNYADSVKGRFTISRDNAKNTVYLQMNSLKPEDTAVYYCNAKQQPYGGTDYDYWGQGTQVTVSS,low polyreactivity
3,QVQLVESGGGLVQAGGSLRLSCAASGGTFYPYAMGWYREAPGKEWELVAAISTSGGITYYADSVKGRFTISRDNAKNTVYLQMNSLKPEDTAVYYCAKVLRDYYTYYRWQYREFGYWGQGTQVTVSS,high polyreactivity
4,QVQLVESGGGLVQAGGSLRLSCAASGSIFAKYYARGWYRQAPVKERELVAAITSGGITNYADSVKGRFTISRDNAKNSVYLQMNSLKPEDTAVYYCAARKWLSAFDYWGQGTQVTVSS,low polyreactivity
5,QVQLVESGGGLVQAGGSLRLSCAASGFIFVLYAMGWDRQAPGKERELVAAINGGSSTNYADSVKGRFTISRDNAKNTVYLQMNSLKPEDTAVYYCAADVIPDGVKKPRMYYWGQGTQVTVSS,low polyreactivity
6,QVQLVESGGGLVQAGGILRLSCAASGSTFFSNTKGWYRQAPGKERELVAAITDSGTSTYYADSVKGRFTISRDIAKNTVYLQMNSLKPEDTAVYYGDAYPSGWYDYWGHGTQVTVSS,low polyreactivity
7,QVQLVESGGGLVQAGCSLRLSCAASGFTFDGYAMVSYRQAPGKERELVAAISDSGDSTYYADSVKGRFTISRDNAKNTVYLQMISLKPEDTADYYCAAALGYYWSDYFAYDYWGQGTQVTVSS,low polyreactivity
8,QVQLVESGGGLVQAGGSLRLSCAASGFTFRANGMGWYRQAPGKERELVATITSGGTTNYADSVKGRFTISRDNAKNTVYFQMNSLKPEDTAVLYCAKRFGPAYFRLYDYWGQGTQVTVSS,low polyreactivity
9,QVQLVESGGGLVQAGGSLRLSCAASGSTLRGYVMGWYRQAPGTERELVAAITQRAGSTYYADSVKGRFTISRDNAKNTVYLQMNSLKPEDTAVYYCRRFYFGKYDYWGQGTQVTVSS,high polyreactivity
10,QVQLVESGGGLVQAGGSLRLTCAASGLTFPVYAKGWYRQAPGKEREFVAAISYSAGRTYYADSVKGRFTISRDNAKNTVYLQMNRLKPEDTAVYYCAAATYYSIYDYWGQGTQVTVSS,high polyreactivity
11,QVQLVESGGGLVQAGGSLRLTCAASGLTFYYYAMGRYRQATGKETELVASISTGGKKYYADSVKGRFTISRDNANNTVYLQMNSLKPEDTAVYYCAADRYDSSQFYYWGQGTQLTVSS,low polyreactivity
12,QVQLVESGGGLVQAGASLRLSCAGSGIIFTRYAMGWYRQAPGKERELVAAITRNGVSTYYADSVKGRFTISRDNAKNTVYLQMNSLKPEDTAVYYCNTYVLRRYAYGYWGQGTQVTVSS,high polyreactivity
13,QVQLVESGGGLVQAGGSLRLSCAASGSIFGYYTMGWYRQAPGKERELVAAITSGGSTNYADSVKGRFTISRDNAKNTVYLQMNSLKPEETAVYYCAKVSYYTWRYDYWGQGTQVTVSS,low polyreactivity
14,QVQLVDSGGGLVQAGGSLRLSCAASGRTFLSMGWYRQAPGKERELVAAISRTNYADSVKGRFTISRDNAKNTVYLQMNSLKPEDTAVYYCAAVPKYGRYVRIGYPNDYWGQGTQVTVSS,low polyreactivity
15,QVQLVESGGGLVQAGGSLRLSCAASGRIFEDYAMGWYRQAAGKERELVARISSGDSTNYADSVKGRFTISRDNAKNTVYLQMNSLKPVVTAVYYCAAEGGVQEFDYWGQGTQVTVSS,low polyreactivity
16,QVQLVESGGGLVQAGGSLRLSCAASGIIFDGNAMGGYRQAAGKERELVAAHTSSTDSTYYADSVKGRFTISRDNAKNTVYLQMNSLKPEDTAVYYCAADYPSKTFDYWGQGTQVTVSS,low polyreactivity

row,Sequence,polyreactivity (PSR sort gate)
1,QVQLVESGGGLVQAGGSLRLSCAASGRTFYLYAMGWYRQAPGKERELVAAITFNGGSTYYADSVKGRFTISRDNAKNTVYLQMNSLKPEDTAVYYCAARLSKRSGYYYWGQGTQVTVSS,high polyreactivity
2,QVQLVESGGGLVQAGGSLRLSCAASGSIFIVYAMGWYRQAPGKERELVAGIRGRGGSTYYADSVKGRFTISRDNAKNTVYLQMNSLKPEDTAVYYCAANPRSYQSPYGYWGQGTQVTVSS,high polyreactivity
3,HAQLQESGGGLVQAGGSLRRSCAASGSMFRFSGMGWYRRAPGKERELVASIGFGSITYYADRVKGRFTISRDNANHTVYLQMNTLKPEDTAVYYCAVQVQDESWLDYWGQGTQVTVSC,low polyreactivity
4,QVQLVESGGGLVQAGGSLRLSCAASGITFTVNAMGWYRQAPGKERELVAAITYSGGNTYYADSVKGRFTISRDTAKNTVYLQMNSLKPEDTAVYYCAADNWPWPEKPDKSILYDYWGQGTQVTVSS,low polyreactivity
5,QVQLVESGGGLVQAGGSLRLSCAASGSNSDPYAMGWYRQAPGKEREFVAAITFSVSSTYYADSVKGRFTISRDNAKNTVYLQMNSLKPEDTAVYYCAARRPLYPERDYWGQGTQVTVSS,high polyreactivity
6,QVHLVESGGGLVQAGGSLRLSCAASGFIFYSNMGWYRQAPGKESEFVAAITWRGGSTYADSVKRRFTISRDNAKNSVYLQMNILKPEDPAVSYCAGESYRAHTPGHPSCTRFGYWGQGTHVTVSS,high polyreactivity
7,QVQLVESGGGLVQAGGSLRLSCAAYGSTFYVYAMGWYRQAPGKESELVAAITSAGSTNYADSVKGRFTISRDNAKYTVYLQMNSLKPEDTAVYYCAVYFDTFYGHMYYWGQCTQVTVSS,low polyreactivity
8,QVQLVESGGGLVQAGGSLSLSCAASGSIFGENAKGWYRQAPGKERELVAAITWGGTSTYYADSVKGRFTISRDNAKNTVYLQMNSLKPEDTAVYYCNTPRYVRRQGVKRYDYWGQGTQVTVSS,low polyreactivity
9,QVQLVESGGGLVQAGGSLRLSCAATGSIVYSNTMGWYRQSPGKERELVAAISTSDTSTYYADSVKGRFTISRDNGKNTVYLQMNSLKPQDTAVYYCNAVCSIVLYGYWGQGTQVTVSS,low polyreactivity
10,QVQLVESGAGLVQAGGSLRLSCAASGIIIPYYVMGRYRQAPGKEMELVAAISGSGGSTYYADSVKGRFTISRDNAKYTVYLQLNSLKPEAPAVYYCARYYYQFGGYEYWGQGTQVTVSS,high polyreactivity
11,QVQLVESGGGLVQAGGSLRLSCAASGSIFSAYVMGWYRQAPGKERELVAAITRSGGSTYYADSVKGRFTISRDNAKNTVYLQMNSLKPEDTAVYYCAVDYLLHYYSYIEDYWGQGTQVTVSS,low polyreactivity
12,QVQLVESGGGLVQAGGSLRLSCAASGRIFVDNAMGWYRQAPGKESELVADITSGGSTYYADSVKGRFTISRDNAKNTVYLQMNSLKPEDTAVYYCAADYRVSSDYRYDYWGQGTQVTVSS,low polyreactivity
13,QVQLVESGAGLVQAGGSLRLSCAASGRIFERYAMGWYRQAPGKERELVAAISVSGSGTYYADSVKGRFTISRDNAKNTVYLQMNSLKPEDTAVYYCAADASLLGLFQGYDYWGQGTQVTVSS,low polyreactivity
14,QVQLVESGGGLVQAGGSLRLSCAASGFIFRTYAMGWYRQAPGKERDLVAAISWRGGSTYYADSVKGRFTISRDNAKNTVYLQMNSLKPEDTAVYYCAKDTTRGVYRSWPKDMDYWGQGTQVTVSS,low polyreactivity
15,QVQLVESGGGLVQAGGSLRLSCAASGFTFNRNDMGWYRQAPGKERELVAAISTSGGRTYYADSVKGRFTISRDNAKNTVYLQMNSLKPEDTAVYYCAADGIYPVGVDYWGQGTQVTVSS,high polyreactivity
16,QVQLVESGGGLVQAGGSLRLSCAASGSTFRYYTMGWYRQAAGQERELVAAITSGGGSTYYADSVKGRFTISRDNAKNTVYLQMNSLKPEDTAVYYCAARTRGTADNYWGQGTQGTVSS,high polyreactivity
